# Data: the supplement of paper PMC10567573
# B1: ZNF449 (parent)
# chain: HKKKSPGEKPHRCPQCGKCFARKS
# Variants of: B1
# Assay: protein stability index of a GFP-peptide fusion (GPS, HEK-293T) (PSI 1-6); higher = more stable
# Conditions: c terminus: a fixed tail appended
# 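Also: lentivirally expressed fusions sorted by FACS into six bins by GFP to DsRed ratio, PSI derived from sequencing read proportions per bin multiplied by bin number.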
row,Variant,protein stability index
1,HKKKSPGEKPHRCPQCGKCFAGKS,3.46
2,HKKKSPGEKPHRCPQCGKCFAVKS,3.15
3,HKKKSPGEKPHRCPQCGKCFADKS,3.82
4,HKKKSPGEKPHRCPQCGKCFAQKS,3.78
5,HKKKSPGEKPHRCPQCGKCFALKS,3.64
6,HKKKSPGEKMHRCPQCGKCFARKS,4.07
7,HKKKSPGEKRHRCPQCGKCFARKS,3.31
8,HKKKSPGEKIHRCPQCGKCFARKS,3.58
9,HKKKSPGEKQHRCPQCGKCFARKS,3.09
10,HKKKSPGEKSHRCPQCGKCFARKS,3.86
11,HKKKSPGEKVHRCPQCGKCFARKS,3.65
12,HKKKSPGEKNHRCPQCGKCFARKS,3.3
13,HKKKSPGEKEHRCPQCGKCFARKS,3.52
14,HKKKSPGEKDHRCPQCGKCFARKS,3.74
15,HKKKSPGEKKHRCPQCGKCFARKS,4.63
16,HKKKSPGEKCHRCPQCGKCFARKS,2.56
17,HKKKSPGEKFHRCPQCGKCFARKS,3.15
18,HKKKSPGEKTHRCPQCGKCFARKS,3.83
19,HKKKSPGEKAHRCPQCGKCFARKS,4.54
20,HKKKSPGEKLHRCPQCGKCFARKS,4.06
21,HKKKSPGEKPHRCPYCGKCFARKS,3.6
22,HKKKSPGEKPHRCPKCGKCFARKS,3.25
23,HKKKSPGEKPHRCPHCGKCFARKS,3.24
24,HKKKSPGEKPHRCPWCGKCFARKS,3.45

row,Variant,protein stability index
1,HKKKSPGEKPHRCPICGKCFARKS,3.45
2,HKKKSPGEKPHRCPMCGKCFARKS,3.95
3,HKKKSPGEKPHRCPECGKCFARKS,3.38
4,HKKKSPGEKPHRCPFCGKCFARKS,3.19
5,HKKKSPGEKPHRCPQCGKCFIRKS,2.92
6,HKKKSPGEKPHRCPQCGKCFYRKS,3.27
7,HKKKSPGEKPHRCPQCGKCFCRKS,2.66
8,HKKKSPGEKPHRCPQCGKCFLRKS,3.26
9,HKKKSPGEKPHRCPQCGKCFDRKS,3.51
10,HKKKSPGEKPHRCPQCGKCFTRKS,3.69
11,HKKKSPGEKPHRCPQCGKCFKRKS,3.99
12,HKKKSPGEKPHRCPQCGKCFVRKS,4.04
13,HKKKSPGENPHRCPQCGKCFARKS,4.35
14,HKKKSPGEYPHRCPQCGKCFARKS,3.75
15,HKKKSPGEHPHRCPQCGKCFARKS,2.57
16,HKKKSPGEWPHRCPQCGKCFARKS,3.66
17,HKKKSPGEMPHRCPQCGKCFARKS,4.23
18,HKKKSPGELPHRCPQCGKCFARKS,2.42
19,HKKKSPGERPHRCPQCGKCFARKS,3.94
20,HKKKSPGEFPHRCPQCGKCFARKS,3.38
21,HKKKSPGYKPHRCPQCGKCFARKS,3.9
22,HKKKSPGQKPHRCPQCGKCFARKS,2.99
23,HKKKSPGVKPHRCPQCGKCFARKS,3.79
24,HKKKSPGKKPHRCPQCGKCFARKS,3.57

row,Variant,protein stability index
1,HKKKSPGWKPHRCPQCGKCFARKS,3.36
2,HKKKSPGMKPHRCPQCGKCFARKS,2.93
3,HKKKSPGDKPHRCPQCGKCFARKS,3.81
4,HKKKSPGCKPHRCPQCGKCFARKS,3.64
5,HKKKSPGNKPHRCPQCGKCFARKS,2.75
6,HKKKSPGPKPHRCPQCGKCFARKS,3.63
7,HKKKSPGLKPHRCPQCGKCFARKS,3.01
8,HKKKSPGFKPHRCPQCGKCFARKS,3.14
9,HKKKSPGHKPHRCPQCGKCFARKS,3.92
10,HKKKSPGRKPHRCPQCGKCFARKS,3.99
11,HKKKSPGAKPHRCPQCGKCFARKS,3.41
12,HKKKSPGIKPHRCPQCGKCFARKS,3.17
13,HKKKSPGEKPHQCPQCGKCFARKS,3.19
14,HKKKSPGEKPHNCPQCGKCFARKS,3.92
15,HKKKSPGEKPHKCPQCGKCFARKS,3.98
16,HKKKSPGEKPHGCPQCGKCFARKS,3.1
17,HKKKSPGEKPHTCPQCGKCFARKS,2.74
18,HKKKSPGEKPHLCPQCGKCFARKS,3.85
19,HKKKSPGEKPHYCPQCGKCFARKS,3.3
20,HKKKSPGEKPHHCPQCGKCFARKS,3.59
21,HKKKSPGEKPHSCPQCGKCFARKS,4.11
22,HKKKSPGEKPHFCPQCGKCFARKS,2.56
23,HKKKSPGEKPHWCPQCGKCFARKS,2.68
24,HKKKSPGEKPHPCPQCGKCFARKS,2.74

row,Variant,protein stability index
1,HKKKSPGEKPHRCPQCGFCFARKS,5.18
2,HKKKSPGEKPHRCPQCGHCFARKS,4.25
3,HKKKSPGEKPHRCPQCGVCFARKS,2.9
4,HKKKSPGEKPHRCPQCGNCFARKS,3.87
5,HKKKSPGEKPHRCPQCGCCFARKS,3.29
6,HKKKSPGEKPHRCPQCGSCFARKS,2.94
7,HKKKSPGEKPHRCPQCGLCFARKS,3.13
8,HKKKSPGEKPHRCPQCGWCFARKS,2.5
9,HKKKSPGEKPHRCPQCGPCFARKS,2.97
10,HKKKSPGEKPHRCPQCGICFARKS,2.52
11,HKKKSPGEKPHRCPQCGDCFARKS,2.17
12,HKKKSPGEKPHRCPQHGKCFARKS,2.71
13,HKKKSPGEKPHRCPQNGKCFARKS,3.64
14,HKKKSPGEKPHRCPQEGKCFARKS,4.71
15,HKKKSPGEKPHRCPQPGKCFARKS,4.48
16,HKKKSPGEKPHRCPQRGKCFARKS,3.42
17,HKKKSPGEKPHRCPQTGKCFARKS,3.71
18,HKKKSPGEKPHRCPQIGKCFARKS,4.24
19,HKKKSPGEKPHRCPQYGKCFARKS,4.59
20,HKKKSPGEKPHRCPQQGKCFARKS,4.18
21,HKKKSPGEKPHRCPQAGKCFARKS,4.73
22,HKKKSPGEKPHRCPQGGKCFARKS,4.53
